The values below come from patent US20250092124A1 (YUNNAN BAIYAO GROUP, published 2025).

Assay [1] deals with T1, GDF15-HIS (ACROBiosystems, CAT #: GD5-H5149) (human, UniProt Q99988 197-308).
T1 sequence (looked up): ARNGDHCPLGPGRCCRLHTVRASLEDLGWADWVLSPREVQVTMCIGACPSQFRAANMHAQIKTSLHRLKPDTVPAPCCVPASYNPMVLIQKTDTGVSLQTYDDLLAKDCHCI
As to the kind of experiment: cell-based or functional assay.

The target in assay [2] is T2, GDF15-mFC protein (human; mouse, UniProt Q99988 197-308).
T2 construct: extracellular domain;domain: IgG2a-FC; also called GDF15-mFc fusion protein
T2 sequence (looked up): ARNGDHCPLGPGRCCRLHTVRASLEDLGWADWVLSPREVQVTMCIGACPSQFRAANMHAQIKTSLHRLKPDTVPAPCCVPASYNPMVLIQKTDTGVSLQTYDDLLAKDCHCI
Nature of the assay: blocking ELISA as in Example 4, GFRAL-hIgG1 Fc coated (competitor), GDF15-mFC mixed with antibody. How it is done: A fusion protein comprising the extracellular region of GFRAL protein (Genbank accession number NM_207410.2) and human IgG1-FC (Genbank accession number CAC20454.1) was diluted to […] with coating solution, followed by adding to ELISA plate at 50 μl/well and incubating at 4° C. overnight. The solution in the wells was discarded and the plate was washed 3 times with washing solution, each time for 3-5 minutes, and dried via tapping. 200 μl of blocking solution was added to each well followed by incubating at 4° C. overnight. The plate was washed 3 times with washing solution, and the coated plate may be stored at −20° C. or 4° C. for future use.
The antibodies to be tested, positive control antibody AV380-mIgG1 and blank control (PBS) were added to the wells. […] At the same time, GDF15-mFC protein (GDF15: Genbank accession number NM_004864.3; mFC: Genbank accession number AAH31470.1) was added at 20 ng/well and mixed with the antibodies to be tested. The wells were incubated at 37° C. for 1 hour, washed, and dried via tapping. Then the enzyme-labeled secondary antibody, horseradish peroxidase-labeled goat anti-mouse IgG (SIGMA, catalog number A9044-2 ml) was added to each well, at a dilution of 1:10000, 50-100 μl/well. The wells were incubated at 37° C. for 2 hours, washed, and dried via tapping. 100 μl of freshly prepared developing solution TMB was added to each well and incubated at 37° C. for 30 minutes. 2 mol/L H₂SO₄ was added to terminate the reaction, and the OD value was obtained on an enzyme-linked immunosorbent reader.
The experiment was performed as detailed in Example 4, except that the antibodies to be tested (the humanized antibodies), negative control antibody (hIgG1), and positive control antibodies Ponsegromab and AV380-hIgG1 were added to each well of the coated plate.

Assay [3] deals with T1, GDF15-HIS (ACROBiosystems, CAT #: …). Nature of the assay: BLI (ForteBio Octet), antibody immobilised, GDF15 200-6.25 nM.
Assay [4] has as its target T2, GDF15-mFC protein. As to the kind of experiment: competitive ELISA, GFRAL-HIS coated (competitor), GDF15-mFc 0.3 µg/ml pre-incubated with antibody. How it is done: GFRAL-HIS protein (ACROBiosystems, GFA-H52H3) was dissolved in PBS at a concentration of […] and was used to coat ELISA 96-well plate one day before blocking the plate with 2% BSA in PBS. 53E5 (hz), and control antibodies Ponsegromab and AV380-hIgG1 were 3.16-fold diluted for 10 gradients with a starting concentration of 20 μg/ml. At the same time, GDF15-mFc protein was added at a final concentration of 0.3 μg/ml. After incubation at room temperature for 1 hour, the mixtures were added to 96-well plate coated with GFRAL-HIS. After incubated at room temperature for 1 hour, the plate was washed and then HRP-anti-mouse IgG was added to the plate. After incubation at room temperature for 1 hour, the HRP enzyme activity (OD450) was detected. The HRP enzyme activity represents the relative amount of GDF15-mFc protein bound to GFRAL. The OD450 values and antibody concentrations were plotted. The dose-effect curve was fitted using the log (agonist) vs. response-variable slope (four-parameter) Logistic model to calculate IC50.

A further assay addresses T3, cynoGDF15-mFC (monkey (cyno); mouse, UniProt G7PWZ3 197-308).
T3 construct: also called monkey GDF15 (cynoGDF15)
T3 sequence (looked up): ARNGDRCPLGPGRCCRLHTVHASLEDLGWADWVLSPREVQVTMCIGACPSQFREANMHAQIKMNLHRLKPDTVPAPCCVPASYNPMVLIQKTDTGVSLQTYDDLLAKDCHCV
Nature of the assay: ELISA, cynoGDF15-mFC coated. How it is done:
The experiment was performed as detailed in Example 2, except that the coating protein was cynoGDF15-mFC (GDF15: Genbank accession number EHH29815.1; mFC: Genbank accession number AAH31470.1), and the antibodies to be tested (the humanized antibodies), negative control antibody (hIgG1), and positive control antibodies Ponsegromab and AV380-hIgG1 were added to each well of the coated plate.

Assay [5] addresses T1, GDF15-HIS (ACROBiosystems, CAT #: …). Nature of the assay: ELISA, GDF15-HIS coated. As for the experimental part:
The experiment was performed as detailed in Example 2, except that the coating protein was GDF15-HIS (ACROBiosystems, CAT #: GD5-H5149), and the antibodies to be tested (the humanized antibodies), negative control antibody (hIgG1), positive control antibodies Ponsegromab (Pfizer; Drug Bank: D11909) and AV380-hlgG1 (the heavy chain and light chain constant regions of AV380-mIgG1 were replaced with the constant regions of human IgG, i.e., SEQ ID NO. 5 and SEQ ID NO. 6) were added to each well of the coated plate.

Assay [6] has the same target. Nature of the assay: ELISA on human GDF15, antibody after 2 weeks at 37 °C in PBS. How it is done:
(§1) […] of the antibodies to be tested (final concentration 1 mg/ml) were added to 200 μl of plasma and PBS, respectively, tightly sealed and placed at 37° C. for 2 weeks. The change of protein binding activity was detected by ELISA.

Assay [7] shares this target. Nature of the assay: ELISA in stability test, antibody after pH 3.6 for 2-4 h; coated antigen not named. As for the experimental part: An appropriate amount of each antibody was taken and adjusted to 5 mg/mL in storage buffer adjusted to pH 3.6 using an ultrafiltration tube. The antibodies were placed at room temperature for 2-4 hours, then protein aggregation was detected using SEC-HPLC, and protein binding activity change was detected by ELISA.

Assay [8] shares this target. As to the kind of experiment: ELISA in stability test, antibody after 40 °C for 2 weeks; coated antigen not named. As for the experimental part:
(§2) An appropriate amount of each antibody was taken and adjusted to 10 mg/mL, and was placed at 40° C. for 1 and 2 weeks. Protein aggregation was detected using SEC-HPLC, and protein binding activity change was detected by ELISA.

Assay [9] has the same target. Nature of the assay: ELISA in stability test, antibody before treatment; coated antigen not named.
Assay [10] shares this target. As to the kind of experiment: ELISA on human GDF15, antibody after 2 weeks at 37 °C in plasma. How it is done: as §1
The target is the same in assay [11]. Nature of the assay: ELISA in stability test, antibody after 5 freeze-thaw cycles; coated antigen not named. As for the experimental part: An appropriate amount of each antibody was taken and adjusted to 10 mg/mL, followed by freezing at −80° C. for 10 min, and placing in an ice-water mixture to slowly thaw. The above procedure was repeated 5 times. Protein aggregation was detected using SEC-HPLC, and protein binding activity change was detected by ELISA.

The target is the same in assay [12]. As to the kind of experiment: ELISA in stability test, antibody after 40 °C for 1 week; coated antigen not named. As for the experimental part:
as §2

B1: AV380-hIgG1 (antibody)
heavy: not shown
light: DIQMTQSPASLSASVGETVTITCRTSENLHNYLAWYQQKQGKSPQLLVYDAKTLADGVPSRFSGSGSGTQYSLKINSLQPEDFGSYYCQHFWSSPYTFGGGTKLEIKRTVAAPSVFIFPPSDEQLKSGTASVVCLLNNFYPREAKVQWKVDNALQSGNSQESVTEQDSKDSTYSLSSTLTLSKADYEKHKVYACEVTHQGLSSPVTKSFNRGEC
notes: also called AV380-hlgG1
Take B1: in assay [1], the “Bottom (luciferase activity fold, fitted curve), HEK293 SRE-LUC2-cRET-GFRAL reporter cells” value was 1.03 and the “IC50, luciferase in HEK293 SRE-LUC2-cRET-GFRAL reporter cells stimulated with GDF15-His 5 ng/ml” value is 0.0447 µg/mL. The molecule also returned an IC50 with GDF15-mFC protein [2] of 0.231 µg/mL. In assay [3], this molecule returned a Kd of 0.0845 nM, a koff of 6.91e-05 s⁻¹ and a kon of 817000 M⁻¹ s⁻¹. Further, the IC50 in the assay with GDF15-mFC protein [4] was 0.231 µg/mL. Further, in the assay with cynoGDF15-mFC, the EC50 is 0.0741 µg/mL and the OD450.Max was determined as 1 OD450. In assay [5], this molecule showed an EC50 of 0.0823 µg/mL and an OD450.Max of 1.07 OD450.

B2: 53A8(hz) (antibody, human IgG1, kappa, V domains shown)
VH: QVQLQESGPGLVKPSETLSLTCTFSGFSLSTSGMGVGWIRQPPGKGLEWLAHIRWDDVKRYNPALKSRLTISKDTSKSQISLKLSSVTAADTAVYYCAQMAWDWFAYWGQGTTVTVSS
VL: DIQMTQSPSSLSASVGDRVTITCKASQNVDTDVAWYQQKPGQSPKALIYSASYRYSGVPSRFSGSGSGTDFTLTISSLQPEDFATYYCHQYNSYPTFGQGTRLEIKR
notes: also called humanized antibody 53A8
B2 returned an IC50 with GDF15-mFC protein [2] of 0.283 µg/mL. Besides, the OD450.Max with GDF15-mFC protein [2] came out at 1.1 OD450; with cynoGDF15-mFC it was 1.03 OD450; in [5], 1.05 OD450. For the same molecule, in [3], the Kd is 0.266 nM. The same molecule registered a dissociation rate constant (koff) in assay [3] of 0.000257 s⁻¹. In addition, in [3], the on-rate constant (kon) was 967000 M⁻¹ s⁻¹. The EC50 worked out at 0.113 µg/mL in assay [6]; 0.0691 µg/mL in [7]; 0.0296 µg/mL in assay [8]; 0.0412 µg/mL in assay [9]; 0.0413 µg/mL in assay [10]; 0.0775 µg/mL with cynoGDF15-mFC. The EC50 in [11] was found to be 0.0673 µg/mL; in [12], 0.0643 µg/mL; in assay [5], 0.0827 µg/mL.
